Data published in patent US20250257142A1 (INVETX, published 2025).
Changes are numbered by the printed parent chain. In names and notes the source's numbering stands. Each block holds one binder with its values, some of them ahead of it.

How the values were obtained:
[1] = target: T1, extracellular domain of canine IL-31RA fused to murine IgG2A Fc (canine); assay: SPR Biacore T200, antibody captured on anti-dog H+L chip, canine IL-31RA-mFc as analyte; relative affinity scale: *** 3 pM-100 pM, ** 101 pM-1 nM, * 1.1 nM-20 nM (avidity)
T1 construct: also called Canine IL-31RA-murine IgG2A Fc; Canine IL-31RA-mFc
T1 chain: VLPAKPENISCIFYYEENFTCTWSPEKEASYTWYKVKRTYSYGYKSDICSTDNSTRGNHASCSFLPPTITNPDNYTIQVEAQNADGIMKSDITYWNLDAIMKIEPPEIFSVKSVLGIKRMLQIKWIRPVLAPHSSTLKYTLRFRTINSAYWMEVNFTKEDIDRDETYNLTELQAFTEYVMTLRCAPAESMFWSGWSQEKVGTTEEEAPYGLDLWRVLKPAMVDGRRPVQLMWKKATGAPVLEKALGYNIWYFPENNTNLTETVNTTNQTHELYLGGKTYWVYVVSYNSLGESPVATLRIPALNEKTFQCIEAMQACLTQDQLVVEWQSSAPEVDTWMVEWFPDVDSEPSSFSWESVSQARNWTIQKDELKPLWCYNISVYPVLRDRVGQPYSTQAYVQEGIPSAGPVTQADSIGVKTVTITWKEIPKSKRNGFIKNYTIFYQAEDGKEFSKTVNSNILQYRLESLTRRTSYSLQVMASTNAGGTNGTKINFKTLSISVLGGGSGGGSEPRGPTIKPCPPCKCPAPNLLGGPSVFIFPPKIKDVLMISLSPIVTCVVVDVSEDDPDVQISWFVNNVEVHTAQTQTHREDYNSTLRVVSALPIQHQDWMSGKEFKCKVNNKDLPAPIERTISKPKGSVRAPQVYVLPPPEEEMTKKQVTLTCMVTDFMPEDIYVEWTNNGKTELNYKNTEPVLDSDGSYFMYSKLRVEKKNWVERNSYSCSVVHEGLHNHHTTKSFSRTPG
Description: (§1) The different heavy and light chain combinations were co-transfected into ExpiCHO cells using the ExpiCHO transfection kit (ThermoFisher; Cat. #A29133). Seven days following the transient transfection, the IgG in the conditioned medium was purified using MabSelect SuRe chromatography. The antibodies were buffer-exchanged into PBS, pH 7.4. The relative affinity of the variants was determined by SPR on a Biacore T200. The antibody was captured using a CM5 Series S chip amine coupled with an anti-dog H+L antibody (Jackson Immunoresearch). Canine IL-31RA-mFc (100 nM, 50 nM, 25 nM, 12.5 nM, 6.25 nM, 3.625 nM) solutions in 1×HBS-EP+ was flown over the sensor chip for a contact time of 120 s and a dissociation time of 600 s at a flow rate of […]. Double reference-subtracted sensorgrams were fitted to a 1:1 binding model using Biacore T200 Evaluation software. The canine IL-31RA antigen was both a dimer and aggregated so there were avidity effects with the measured affinities. […] Following the initial results with the single variants, a heavy chain containing the W53F variant and the M118I variant was synthesized and subcloned into pcDNA 3.4 (SEQ ID NO:18). The same methods as described above for expression and purification of the variant along with measuring the relative affinity were used to determine the relative affinity of the W53F/M118I heavy chain variant combined with the S95A light chain and the N94Q light chain variants.

[2] = target: T2, canine IL-31RA (20-308)-AviTag-His Tag, monomeric (canine); assay: SPR Biacore T200, antibody captured on anti-dog H+L chip, monomeric canine IL-31RA (20-308) as analyte
T2 construct: Signal peptide (first 19 residues) left out; also called monomeric IL-31RA
T2 chain: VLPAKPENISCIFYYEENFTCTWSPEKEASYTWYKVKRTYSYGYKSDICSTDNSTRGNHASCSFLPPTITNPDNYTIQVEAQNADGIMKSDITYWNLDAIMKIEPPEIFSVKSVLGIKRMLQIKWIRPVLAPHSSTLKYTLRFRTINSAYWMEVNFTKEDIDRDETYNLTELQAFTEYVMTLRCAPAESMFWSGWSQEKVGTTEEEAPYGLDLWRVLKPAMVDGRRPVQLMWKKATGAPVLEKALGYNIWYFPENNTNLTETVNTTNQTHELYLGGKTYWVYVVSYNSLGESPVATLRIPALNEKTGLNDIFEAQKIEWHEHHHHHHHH
Description: as §1, with “The” for “The different heavy and light chain combinations were co-transfected into ExpiCHO cells using the ExpiCHO transfection kit (ThermoFisher; Cat. #A29133). Seven days following the transient transfection, the IgG in the conditioned medium was purified using MabSelect SuRe chromatography. The antibodies were buffer-exchanged into PBS, pH 7.4. The relative affinity of the variants was determined by SPR on a Biacore T200. The”
To reduce the avidity effects from using the canine IL-31RA-mouse Fc construct in SPR experiments, a monomeric construct was generated which contains amino acids 20-308 of the canine IL-31IRA extracellular domain (SEQ ID NO:28). This construct has the AviTag sequence ([…] (SEQ ID NO:51)) followed by an 8×His(SEQ ID NO:52) tag to facilitate purification. GenScript HD (High Density) CHO-S cells were transiently transfected with pcDNA 3.4 containing Sequence 28 and purified with HisTrap FF chromatography. Further purification of the recombinant protein was completed using gel filtration with Cytiva HiLoad 26/600 Superdex chromatography to isolate the monomeric IL-31RA species. […] These clones were evaluated in an SPR experiment using the same conditions as described for the caninized clones except the analyte is canine IL-31RA (20-308).

[3] = target: T1, extracellular domain of canine IL-31RA …; assay: SPR Biacore T200, antibody captured on anti-dog H+L chip, canine IL-31RA-mFc as analyte; relative affinity scale: *** 3 pM-100 pM, ** 101 pM-1 nM, * 1.1 nM-20 nM (avidity)
Description: as §1, with “Seven” for “The different heavy and light chain combinations were co-transfected into ExpiCHO cells using the ExpiCHO transfection kit (ThermoFisher; Cat. #A29133). Seven”

B1: 109-49 heavy chain M118I variant with wild-type light chain (antibody, V domains shown)
VH: EVQLVESGGDLVKPGGSLRLSCVASGFTFDDYGMSWVRQAPGKGLQWVSGINWAGGTIGYADAVKGRFTISRDNARNTVYLQMNSLRAEDTAVYYCARESPLRLGDLGGDYFYYYYYIDVWGQGTLVTVSS
VL: EVVMIQTPLSLSVSPGEPASISCRASQSVSSRYLVWYLQKPGQSPQLLIYGTSSRATGVSDRFSGSGSGTDFTLRISRVEAEDVGVYYCQQYDNSPRTFGQGTKVEIKR
notes: Canine IgGB/kappa; signal peptides left out; also called M118I / Wild-type
relative affinity (apparent KD by SPR) [1]: 0.003 to 0.1 nM

B3: 109-49 heavy chain M118L variant with wild-type light chain (antibody, V domains shown)
VH: B1 VH with I118L
VL: B1 VL
notes: Canine IgGB/kappa; signal peptides left out; also called M118L / Wild-type
relative affinity (apparent KD by SPR) [1]: 1.1 to 20 nM

B4: 109-49 heavy chain W53Y variant with wild-type light chain (antibody, V domains shown)
VH: B1 VH with W53Y, I118M
VL: B1 VL
notes: Canine IgGB/kappa; signal peptides left out; also called W53Y / Wild-type
relative affinity (apparent KD by SPR) [1]: 1.1 to 20 nM

B6: 109-49 heavy chain M118I variant with light chain N94Q variant (antibody, V domains shown)
VH: B1 VH
VL: B1 VL with N94Q
notes: Canine IgGB/kappa; signal peptides left out; also called M118I / N94Q
relative affinity (apparent KD by SPR) [1]: 0.003 to 0.1 nM

B7: 109-49 heavy chain W53F + M118I variant with light chain S95A variant (antibody, V domains shown)
VH: B1 VH with W53F
VL: B1 VL with S95A
notes: Canine IgGB/kappa; signal peptides left out; also called W53F-M118I / S95A
relative affinity (apparent KD by SPR) [1]: 1.1 to 20 nM

B9: 109-49 heavy chain W53F + M118I variant with light chain N94Q variant (antibody, V domains shown)
VH: B1 VH with W53F
VL: B1 VL with N94Q
notes: Canine IgGB/kappa; signal peptides left out; also called W53F-M118I / N94Q
relative affinity (apparent KD by SPR) [1]: 1.1 to 20 nM

B10: 109-49 heavy chain W53F variant with wild-type light chain (antibody, V domains shown)
VH: B1 VH with W53F, I118M
VL: B1 VL
notes: Canine IgGB/kappa; signal peptides left out; also called W53F / Wild-type
relative affinity (apparent KD by SPR) [1]: 1.1 to 20 nM

B12: 186-95 heavy chain M106L variant with wild-type light chain (antibody, V domains shown)
VH: EVQLVESGGDLVKPGGSLRLSCVASGFTFSSYAMSWVRQAPGKGLQWVSAISGSGNSTYYADAVKGRFTISRDNAKNTLYLQMNSLRAEDTAVYYCATQVVYYFKLDVWGQGTLVTVSS
VL: EIVMTQSPGSLAGSAGESVSINCKSSQSVSSNLAWYQQKPGERPKLLIYGASTRASGVPARFSSSGSGTDFTLTINNLQAEDVGDYYCQQYYNWPPFTFGQGTKLEIKR
notes: Canine IgGB/kappa; signal peptides left out; also called M106L / Wild-type
binding result [3]: binds

Now from value to binder:

relative affinity (apparent KD by SPR) [1]: 0.003 to 0.1 nM
B2: 109-49 wild-type heavy chain with light chain S95A variant (antibody, V domains shown)
VH: B1 VH with I118M
VL: B1 VL with S95A
notes: Canine IgGB/kappa; signal peptides left out; also called Wild-type / S95A

relative affinity (apparent KD by SPR) [1]: 0.101 to 1 nM
B5: 109-49 wild-type heavy chain with light chain N94Q variant (antibody, V domains shown)
VH: B1 VH with I118M
VL: B1 VL with N94Q
notes: Canine IgGB/kappa; signal peptides left out; also called Wild-type / N94Q

relative affinity (apparent KD by SPR) [1]: 0.003 to 0.1 nM
B8: caninized antibody clone 109-49 (antibody, V domains shown)
VH: B1 VH with I118M
VL: B1 VL
notes: Canine IgGB and canine kappa constant domains

Kd [2]: 1.31 nM
koff [2]: 7.09e-05 s⁻¹
kon [2]: 54400 M⁻¹ s⁻¹
relative affinity (apparent KD by SPR) [1]: 0.003 to 0.1 nM
B11: 109-49_IA (109-49 containing the M118I and S95A variants) (antibody, V domains shown)
VH: B1 VH
VL: B1 VL with S95A
notes: Canine IgGB/kappa; signal peptides left out; also called M118I / S95A

binding result [3]: binds
B13: 186-95 heavy chain N56Q + M106L variant with light chain W94Y variant (antibody, V domains shown)
VH: B12 VH with N56Q
VL: B12 VL with W94Y
notes: Canine IgGB/kappa; signal peptides left out; also called N56Q-M106L / W94Y

binding result [3]: binds
B14: 186-95 heavy chain N56Q variant with wild-type light chain (antibody, V domains shown)
VH: B12 VH with N56Q, L106M
VL: B12 VL
notes: Canine IgGB/kappa; signal peptides left out; also called N56Q / Wild-type

binding result [3]: binds
B15: caninized antibody clone 186-95 (antibody, V domains shown)
VH: B12 VH with L106M
VL: B12 VL
notes: as for B8

binding result [3]: binds
B16: 186-95 heavy chain S57A variant with wild-type light chain (antibody, V domains shown)
VH: B12 VH with S57A, L106M
VL: B12 VL
notes: Canine IgGB/kappa; signal peptides left out; also called S57A / Wild-type

binding result [3]: binds
B17: 186-95 heavy chain M106I variant with wild-type light chain (antibody, V domains shown)
VH: B12 VH with L106I
VL: B12 VL
notes: Canine IgGB/kappa; signal peptides left out; also called M106I / Wild-type

binding result [3]: binds
B18: 186-95 wild-type heavy chain with light chain W94F variant (antibody, V domains shown)
VH: B12 VH with L106M
VL: B12 VL with W94F
notes: Canine IgGB/kappa; signal peptides left out; also called Wild-type / W94F

binding result [3]: binds
B19: 186-95 wild-type heavy chain with light chain W94Y variant (antibody, V domains shown)
VH: B12 VH with L106M
VL: B12 VL with W94Y
notes: Canine IgGB/kappa; signal peptides left out; also called Wild-type / W94Y
